Measured values reported in patent US20190083616A1 (UNIVERSITY OF TENESSEE RESEARCH FOUNDATION, published 2019).

T1: peptope p66 (p5+14 - SVTVVT linker - 11-1F4 12-mer epitope KHYAAFPENLLI)
T1 construct: also called peptide p66; 11-1F4 peptope
T1 peptide: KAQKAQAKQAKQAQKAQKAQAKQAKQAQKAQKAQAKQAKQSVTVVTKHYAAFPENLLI


Key:
Vκ4Len(1-22) peptide = Vκ4Len(1-22) peptide (UniProt P06312); experiment: EuLISA, peptide-coated wells, mAb titrated from 100 nM
[1] = biological target: T1, peptope p66 (p5+14 - SVTVVT linker - …); experiment: EuLISA: rVλ6Wil fibrils on the plate, p66 added and washed, murine 11-1F4 titrated 1:2 from 100 nM; 11-1F4 also binds the fibrils themselves at high concentration (FIG. 10)

Row | EC50 (Vκ4Len(1-22) peptide) | EC50 (read off the curve) [1] | Molecule
1 | 0.5 nM | – | murine monoclonal antibody 11-1F4
2 | – | ~800 pM | murine monoclonal antibody 11-1F4 (antibody, V domains shown) VH: QVQLKESGPGLVAPSQSLSITCTVSGFSLSSYGVSWVRQPPGKGLEWLGVIWGDGSTNYHPNLMSRLSISKDISKSQVLFKLNSLQTDDTATYYCVTLDYWGQGTSVTVSS VL: DVVMTQTPLSLPVSLGDQASISCRSSQSLVHRNGNTYLHWYLQKPGQSPKLLIYKVSNRFSGVPDRFSGSGSGTDFTLKISRVEAEDLGLYFCFQTTYVPNTFGGGTKLEIK
